# Experiments:
# Assay in all cases: ITC
# AnkG exZZUD (rat) = AnkG exZZUD (rat) (UniProt O70511)
# [1] = target: AnkB exZZU R1029E (human)
# [2] = target: AnkB exZZU (extension-ZU5N-ZU5C-UPA, aa 951-1443) (human)
# AnkB exZZU F968A (human) = target: AnkB exZZU F968A (human)
# AnkB exZZU I964Q (human) = target: AnkB exZZU I964Q (human)
# [3] = target: AnkB ZU5N-ZU5C-UPA-DD tandem (ZZUD, aa 966-1535) (human)
# [4] = target: AnkB exZZU T1324D (human)
# Sequence of UniProt O70511 (O70511 whole entry): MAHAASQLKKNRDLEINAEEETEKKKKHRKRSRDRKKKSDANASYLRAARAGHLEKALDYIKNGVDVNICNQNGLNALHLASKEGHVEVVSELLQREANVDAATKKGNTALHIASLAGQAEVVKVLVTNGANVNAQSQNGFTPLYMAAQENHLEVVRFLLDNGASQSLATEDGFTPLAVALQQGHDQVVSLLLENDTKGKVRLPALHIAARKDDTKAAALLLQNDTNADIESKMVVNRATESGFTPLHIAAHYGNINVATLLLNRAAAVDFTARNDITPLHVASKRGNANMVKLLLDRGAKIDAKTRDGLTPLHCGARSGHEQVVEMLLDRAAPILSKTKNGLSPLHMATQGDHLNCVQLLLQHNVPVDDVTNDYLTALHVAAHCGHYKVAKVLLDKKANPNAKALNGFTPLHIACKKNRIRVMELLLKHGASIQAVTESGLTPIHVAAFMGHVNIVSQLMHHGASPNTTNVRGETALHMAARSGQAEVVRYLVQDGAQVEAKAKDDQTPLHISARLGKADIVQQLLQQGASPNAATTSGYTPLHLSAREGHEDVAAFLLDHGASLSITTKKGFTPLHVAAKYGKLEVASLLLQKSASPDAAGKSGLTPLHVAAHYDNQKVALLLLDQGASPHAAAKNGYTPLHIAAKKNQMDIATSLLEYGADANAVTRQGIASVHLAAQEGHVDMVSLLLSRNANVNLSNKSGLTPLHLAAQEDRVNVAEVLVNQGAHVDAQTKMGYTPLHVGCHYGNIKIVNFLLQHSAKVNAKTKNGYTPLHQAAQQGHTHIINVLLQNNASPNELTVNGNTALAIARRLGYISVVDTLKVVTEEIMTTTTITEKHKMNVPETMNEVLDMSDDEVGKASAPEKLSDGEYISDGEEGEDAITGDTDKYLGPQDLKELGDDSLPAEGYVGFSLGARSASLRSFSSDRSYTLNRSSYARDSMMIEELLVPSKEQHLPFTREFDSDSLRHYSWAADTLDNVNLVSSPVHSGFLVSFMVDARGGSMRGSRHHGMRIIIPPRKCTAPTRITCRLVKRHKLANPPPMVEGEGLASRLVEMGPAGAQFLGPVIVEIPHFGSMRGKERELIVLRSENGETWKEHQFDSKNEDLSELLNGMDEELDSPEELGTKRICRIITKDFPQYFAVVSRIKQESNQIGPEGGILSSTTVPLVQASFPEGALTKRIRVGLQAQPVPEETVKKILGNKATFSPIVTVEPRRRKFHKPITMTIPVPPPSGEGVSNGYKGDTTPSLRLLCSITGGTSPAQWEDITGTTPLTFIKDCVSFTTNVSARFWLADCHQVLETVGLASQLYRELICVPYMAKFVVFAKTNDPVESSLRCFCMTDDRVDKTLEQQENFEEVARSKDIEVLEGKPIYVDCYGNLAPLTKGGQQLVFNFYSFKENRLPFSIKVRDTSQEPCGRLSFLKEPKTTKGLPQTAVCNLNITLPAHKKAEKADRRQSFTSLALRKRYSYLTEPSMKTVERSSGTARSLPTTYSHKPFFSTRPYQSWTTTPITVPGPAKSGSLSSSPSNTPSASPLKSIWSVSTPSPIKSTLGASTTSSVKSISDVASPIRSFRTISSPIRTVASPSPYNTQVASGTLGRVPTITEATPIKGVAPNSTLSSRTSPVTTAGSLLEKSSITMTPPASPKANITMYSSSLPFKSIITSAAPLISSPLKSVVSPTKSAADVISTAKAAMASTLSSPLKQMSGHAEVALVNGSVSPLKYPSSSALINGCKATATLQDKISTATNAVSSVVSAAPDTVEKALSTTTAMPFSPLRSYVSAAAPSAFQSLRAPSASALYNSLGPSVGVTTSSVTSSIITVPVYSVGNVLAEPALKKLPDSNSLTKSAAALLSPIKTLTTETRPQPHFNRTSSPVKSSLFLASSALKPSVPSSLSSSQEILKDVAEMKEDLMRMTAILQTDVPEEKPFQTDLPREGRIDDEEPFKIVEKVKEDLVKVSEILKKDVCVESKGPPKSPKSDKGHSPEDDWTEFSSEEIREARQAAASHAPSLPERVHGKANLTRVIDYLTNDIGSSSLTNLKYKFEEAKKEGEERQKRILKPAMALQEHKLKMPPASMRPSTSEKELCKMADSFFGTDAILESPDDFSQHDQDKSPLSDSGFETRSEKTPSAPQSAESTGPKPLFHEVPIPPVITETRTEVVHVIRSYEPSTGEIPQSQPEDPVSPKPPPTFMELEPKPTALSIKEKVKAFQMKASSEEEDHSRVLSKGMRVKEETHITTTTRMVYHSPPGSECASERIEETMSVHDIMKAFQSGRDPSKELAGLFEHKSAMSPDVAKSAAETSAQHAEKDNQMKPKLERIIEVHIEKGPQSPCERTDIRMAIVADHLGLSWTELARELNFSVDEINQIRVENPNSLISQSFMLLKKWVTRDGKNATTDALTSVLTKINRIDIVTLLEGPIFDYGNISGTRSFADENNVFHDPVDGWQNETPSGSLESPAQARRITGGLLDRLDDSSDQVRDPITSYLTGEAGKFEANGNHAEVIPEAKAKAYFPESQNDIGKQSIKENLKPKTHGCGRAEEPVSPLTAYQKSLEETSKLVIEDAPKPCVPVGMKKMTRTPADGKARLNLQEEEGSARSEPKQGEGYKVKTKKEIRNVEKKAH
substance,measurement,setting,value
β2-spectrin R13-16 (from UniProt Q62261 1-2363) (domain or fragment),fold stronger binding than AnkG ZZUD without the extension,AnkG exZZUD (rat),> 10 fold
β2-spectrin spectrin repeats 13-15 (R13-15) (domain or fragment),fold decrease of binding against wild-type AnkB exZZU,[1],5 fold
same,Kd,[2],200 nM
same,fold decrease of binding against wild-type AnkB exZZU,AnkB exZZU F968A (human),> 10 fold
same,fold decrease of binding against wild-type AnkB exZZU,AnkB exZZU I964Q (human),4 fold
same,Kd,[3],4900 nM
β4-spectrin spectrin repeats 13-15 (R13-15) (domain or fragment),fold decrease of binding against wild-type AnkB exZZU,[4],5 fold

# Source: article doi:10.1101/2020.03.04.976142
